Experimental findings from patent EP4682168A1, “ANTI-LIV-1 ANTIBODY AND ANTI-LIV-1 ANTIBODY-DRUG CONJUGATE, AND PHARMACEUTICAL USE THEREOF” (priority 2023, dated 2024) are described below.

For assay [1], the target named is T1, LIV-1 expressed on the cell surface of cancer cell lines (human) (UniProt Q13433).
T1 sequence (looked up): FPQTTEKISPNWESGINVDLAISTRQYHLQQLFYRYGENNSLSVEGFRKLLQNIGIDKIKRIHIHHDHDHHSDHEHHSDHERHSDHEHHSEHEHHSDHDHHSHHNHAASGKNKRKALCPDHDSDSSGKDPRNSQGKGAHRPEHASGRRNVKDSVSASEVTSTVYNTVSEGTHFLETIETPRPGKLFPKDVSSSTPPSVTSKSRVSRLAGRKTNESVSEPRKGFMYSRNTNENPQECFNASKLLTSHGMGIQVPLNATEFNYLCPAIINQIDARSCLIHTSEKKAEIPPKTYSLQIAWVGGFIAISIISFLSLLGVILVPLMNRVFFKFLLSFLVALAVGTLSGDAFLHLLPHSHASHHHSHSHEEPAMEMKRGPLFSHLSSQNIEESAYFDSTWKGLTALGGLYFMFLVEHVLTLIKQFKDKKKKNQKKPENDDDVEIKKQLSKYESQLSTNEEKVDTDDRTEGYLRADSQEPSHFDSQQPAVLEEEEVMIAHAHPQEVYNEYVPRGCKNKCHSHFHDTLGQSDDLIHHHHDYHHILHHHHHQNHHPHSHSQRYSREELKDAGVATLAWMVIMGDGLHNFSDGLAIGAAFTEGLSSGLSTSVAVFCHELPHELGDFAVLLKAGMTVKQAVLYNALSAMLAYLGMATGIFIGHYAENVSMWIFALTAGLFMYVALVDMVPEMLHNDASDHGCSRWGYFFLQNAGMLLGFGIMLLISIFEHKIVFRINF
Put plainly: flow cytometry, isotype control, MCF7-Liv1 #12 cells (moderate exogenous LIV-1). In general terms: In flow cytometry, cells or beads pass a laser one at a time.

Assay [2] deals with T1, LIV-1 expressed on the cell surface of cancer cell lines (human). The assay is described as follows: flow cytometry, isotype control, Calu6 cells (endogenous LIV-1).
The target is the same in assay [3]. Put plainly: flow cytometry, isotype control, MCF7-Liv1 #7 cells (high exogenous LIV-1).
Assay [4] has the same target. Put plainly: flow cytometry, isotype control, PC-3 cells (endogenous LIV-1).
For assay [5] the target is unchanged. The assay is described as follows: flow cytometry, isotype control, HCC 1806 cells (endogenous LIV-1).
For assay [6] the target is unchanged. The assay is described as follows: flow cytometry, isotype control, MCF7-Liv1 #17 cells (high exogenous LIV-1).
Assay [7] has as its system PA-1 mouse subcutaneous tumors. The assay is described as follows: PA-1 ovarian cancer xenograft efficacy study. Format: in vivo, CD1 athymic nude mice. The settings on record: Single dose of 3 mg/kg, intravenous injection. As to the method:
(§1) Tumor cells grown in the implantation culture of CD1 athymic nude mice: Calu-6 (2.5 × 10^6 cells in 50% matrigel) from ATCC, PC-3 (2.5 × 10^6 cells) from ATCC, and PA-1 (5 × 10^6 cells in 50% matrigel) from ATCC. Tumor cells grown in the implantation culture of NSG mice: HCC1806 (2.5 × 10^6 cells in 50% matrigel) from ATCC and MCF-7 (10 × 10^6 cells; for the in vivo growth of MCF-7, 8.5 µg/mL estradiol was added to the drinking water of female mice) from NCI.
(§2) When the tumors grew to 150 mm^3, the humanized LIV-1 ADC or the non-binding control ADC (1 mg/kg, 3 mg/kg, 6 mg/kg, or 10 mg/kg) was administered by intravenous injection once every four days for a total of four administrations (q4d × 4), by intravenous injection once every week for a total of 2 administrations (qw × 2), or by single intravenous injection. The tumor volume was monitored using a caliper, and the animals were euthanized when the tumor volume reached about 2000 mm^3. Tumor volume plots were continued for each group until one or more animals were euthanized. All animal procedures were conducted in a facility approved by the Association for Assessment and Accreditation of Laboratory Animal Care in accordance with protocols approved by the Institutional Animal Care and Use Committee. TGI was calculated as follows: TGI (%) = 1−[(Td−T0)/(Cd−C0)] × 100% [formula] […]

Assay [8] has as its system PC3 mouse subcutaneous tumors. The assay is described as follows: PC3 prostate cancer xenograft efficacy study. In kind it is in vivo, CD1 athymic nude mice. Conditions: Single dose of 10 mg/kg, intravenous injection. As to the method: as §1, §2
Assay [9] has as its target T1, LIV-1 expressed on the cell surface of cancer cell lines (human). The assay is described as follows: flow cytometry, antibody A against IgG1 isotype control, MCF7-Liv1 #12 cells.
Assay [10] shares this target. The assay is described as follows: flow cytometry, 10 µg/mL antibody, MCF7-Liv1 #17 cells (high exogenous LIV-1).
Assay [11] has the same target. The assay is described as follows: flow cytometry, 10 µg/mL antibody, Calu6 cells (endogenous LIV-1).
Assay [12] has the same target. The assay is described as follows: flow cytometry, 10 µg/mL antibody, PC-3 cells (endogenous LIV-1).
Assay [13] shares this target. Put plainly: flow cytometry, 10 µg/mL antibody, HCC 1806 cells (endogenous LIV-1).
For assay [14] the target is unchanged. Put plainly: flow cytometry, 10 µg/mL antibody, MCF7-Liv1 #7 cells (high exogenous LIV-1).
For assay [15] the target is unchanged. The assay is described as follows: flow cytometry, antibody A against IgG1 isotype control, PC-3 cells.
The target is the same in assay [16]. Put plainly: flow cytometry, antibody A against IgG1 isotype control, MCF7-Liv1 #17 cells.
Assay [17] has the same target. The assay is described as follows: flow cytometry, antibody A against IgG1 isotype control, MCF7-Liv1 #7 cells.
For assay [18] the target is unchanged. The assay is described as follows: flow cytometry, 10 µg/mL antibody, MCF7-Liv1 #12 cells (moderate exogenous LIV-1).
The target is the same in assay [19]. The assay is described as follows: flow cytometry, antibody A against IgG1 isotype control, HCC 1806 cells.
Assay [20] has the same target. Put plainly: flow cytometry, antibody A against IgG1 isotype control, Calu6 cells.
The target in assay [21] is human LIV-1 antigen (with a His tag, NP_036451.1, amino acids Phe229-Ile323) (human) (UniProt Q13433). Put plainly: ForteBio (BLI). Background: In BLI a coated tip is dipped into the sample, and binding shifts an interference pattern.
For assay [22], the target named is T2, LIV-1 expressed on the cell surface of cancer cell lines (human, UniProt Q13433 29-755).
T2 sequence (looked up): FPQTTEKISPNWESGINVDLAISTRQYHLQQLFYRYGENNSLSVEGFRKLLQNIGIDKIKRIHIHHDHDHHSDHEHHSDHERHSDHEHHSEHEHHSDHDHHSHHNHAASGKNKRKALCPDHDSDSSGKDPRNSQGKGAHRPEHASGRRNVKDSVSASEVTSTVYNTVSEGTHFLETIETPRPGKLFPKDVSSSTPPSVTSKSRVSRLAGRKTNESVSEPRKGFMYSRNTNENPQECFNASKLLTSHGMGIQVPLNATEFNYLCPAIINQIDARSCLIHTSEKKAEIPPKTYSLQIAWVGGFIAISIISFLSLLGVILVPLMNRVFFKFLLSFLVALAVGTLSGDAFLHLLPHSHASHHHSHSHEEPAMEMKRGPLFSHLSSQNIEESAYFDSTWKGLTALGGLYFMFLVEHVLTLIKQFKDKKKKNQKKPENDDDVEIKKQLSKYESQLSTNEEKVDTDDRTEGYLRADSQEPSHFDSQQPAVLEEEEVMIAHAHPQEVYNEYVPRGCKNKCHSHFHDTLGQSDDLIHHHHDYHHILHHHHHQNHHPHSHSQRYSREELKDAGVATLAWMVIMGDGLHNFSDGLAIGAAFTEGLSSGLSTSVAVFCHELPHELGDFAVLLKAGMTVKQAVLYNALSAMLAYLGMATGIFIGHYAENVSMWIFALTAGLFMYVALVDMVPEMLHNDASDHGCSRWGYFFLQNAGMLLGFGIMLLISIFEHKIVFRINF
Put plainly: cell-based or functional assay.

Turning to “non-specific isotype control commercial antibody IgG (BioXCell, BE0297)”, the MFI (RFU) in assay [1] amounted to 3120 RFU; in assay [2], 4440 RFU; in [3], 3410 RFU; in assay [4], 2840 RFU; in [5], 2180 RFU; in assay [6] it was 1510 RFU.

B1: L-McMMAE: Ladiratuzumab antibody L conjugated to MC-MMAE, DAR of 3.5-4; prior-art ADC targeting Liv-1 (conjugate, chains of the INN, looked up)
VH: QVQLVQSGAEVKKPGASVKVSCKASGLTIEDYYMHWVRQAPGQGLEWMGWIDPENGDTEYGPKFQGRVTMTRDTSINTAYMELSRLRSDDTAVYYCAVHNAHYGTWFAYWGQGTLVTVSS
VL: DVVMTQSPLSLPVTLGQPASISCRSSQSLLHSSGNTYLEWYQQRPGQSPRPLIYKISTRFSGVPDRFSGSGSGTDFTLKISRVEAEDVGVYYCFQGSHVPYTFGGGTKVEIK
modifications: MC-MMAE payload
As for B1, in [7], the “Tumor growth inhibition rate TGI% (day 13 after administration)” value was determined as 26.68%. Further, in [8], the “Tumor growth inhibition rate TGI% (day 24 after administration)” value amounted to 103.92%.

B2: Antibody A (antibody, human IgG1, kappa, V domains shown)
VH: EVQLVQSGAEVKKPGATVKISCKASGLNIEDYYMHWVQQAPGKGLEWMGWIDPENGDTEYAEKFQGRVTITADTSTNTAYMELSSLRSEDTAVYYCTVHNAHYGTWFAYWGQGTTVTVSS
VL: DIVMTQTPLSLSVTPGQPASISCRSSQTLVRSDGNTYLEWYLQKPGQSPQLLIYRVSNRFSGVPDRFSGSGSGTDFTLKISRVEAEDVGVYYCFQGSHVPYTFGGGTKLEIKR
In the case of B2, the MFI ratio (MFI of anti-LIV-1/MFI of control antibody) worked out at 6.7 in [9]; 2 in [15]; 71.1 in assay [16]; 38.7 in assay [17]; 2 in assay [19]; 2.5 in assay [20]. The MFI (RFU) was 107000 RFU in [10]; 11100 RFU in [11]; 5660 RFU in assay [12]; 4420 RFU in [13]; 132000 RFU in assay [14]; 20900 RFU in assay [18].

B3: Antibody A-1 (antibody, human IgG1, kappa, V domains shown)
VH: EVQLVQSGAEVKKPGATVKISCKASGLNIEDYYMHWVQQAPGKGLEWMGWIDPENGDTEYAEKFQGRVTITADTSTDTAYMELSSLRSEDTAVYYCTVHNAHYGTWFAYWGQGTTVTVSS
VL: DIVMTQTPLSLSVTPGQPASISCRSSQTLVRSDGNTYLEWYLQKPGQSPQLLIYRVSNRFSGVPDRFSGSGSGTDFTLKISRVEAEDVGVYYCFQGSHVPYTFGGGTKLEIKR
For B3, in assay [21], the Kd (as a rule, the equilibrium constant for the complex coming apart) came out at 0.0524 nM; the koff – broadly, a measure of how fast the partners let go of each other – came out at 4.17e-05 s⁻¹; the kon (commonly the rate constant with which the complex forms) was 796000 M⁻¹ s⁻¹.

B4: A-BrAcMMAE (antibody, human IgG1, kappa, V domains shown)
VH: EVQLVQSGAEVKKPGATVKISCKASGLNIEDYYMHWVQQAPGKGLEWMGWIDPENGDTEYAEKFQGRVTITADTSTNTAYMELSSLRSEDTAVYYCTVHNAHYGTWFAYWGQGTTVTVSS
VL: DIVMTQTPLSLSVTPGQPASISCRSSQTLVRSDGNTYLEWYLQKPGQSPQLLIYRVSNRFSGVPDRFSGSGSGTDFTLKISRVEAEDVGVYYCFQGSHVPYTFGGGTKLEIKR
modifications: MMAE drug-linker (compound 11, bromoacetyl-Val-Cit-PAB-MMAE) on reduced cysteine sulfhydryls; average DAR 3.5-4; positions not given
B4: in [22], the “IC50 (nM) for inhibition of proliferation, Calu6 cells, CellTiterGlo2” value was found to be 11 nM; the “IC50 (nM) for inhibition of proliferation, MCF7-Liv1 #7 cells, CellTiterGlo2” value stood at 0.03 nM; the “IC50 (nM) for inhibition of proliferation, MCF7-Liv1 #12 cells, CellTiterGlo2” value turned out to be 0.031 nM; the “IC50 (nM) for inhibition of proliferation, MCF7-Liv1 #17 cells, CellTiterGlo2” value is 0.05 nM.
